Assay results reported in patent US8012929B2, “Peptides directed for diagnosis and treatment of amyloid-associated diseases” (Tel Aviv University Future Technology Development L.P., priority 2002, dated 2011).
Values belong to the substance of their own block, whether it stands above or below them. Ends that are not written are not given here.

Legend:
Type in all cases: physicochemical
[1] = Transmission electron microscopy of aged peptides (Example 10); details: for fibrilar supramolecular ultrastructures by electron microscopy: peptides derived from amyloid proteins, mild conditions
Procedure: Transmission Electron Microscopy—A 10 μL sample of 8 mg/ml peptide solution in 10 mM Tris buffer, pH 7.2 aged for at least one day was placed on 400-mesh copper grids (SPI supplies, West Chester Pa.) covered by carbon-stabilized Formvar film. Following 1 minute, excess fluid was removed, and the grid was then negatively stained with 2% uranyl acetate in water for another two minutes. Samples were viewed in a JEOL 1200EX electron microscope operating at 80 kV.

[2] = Kinetic aggregation assay, turbidity at 405 nm (Example 8)
Procedure: Kinetic Aggregation Assay—freshly prepared peptide stock solutions were generated by dissolving the lyophilized form of the peptides in dimethyl sulfoxide (DMSO) at a concentration of 100 mg/ml. To avoid any pre-aggregation, fresh stock solutions were prepared for each experiment. […] Turbidity data were collected at 405 nm. Buffer solution containing the same amount of DMSO as the tested samples was used as blank, which was subtracted from the results. Turbidity was measured continuously at room temperature using THERMOmax ELISA plate reader (Molecular Devices, Sunnyvale Calif.).

[3] = Fourier transform infrared spectroscopy of aged peptides (Example 11); details: for secondary structure by FT-IR: hIAPP peptide fragments, aged solutions from turbidity assay; for secondary structure by FT-IR (amide I): Calcitonin-derived peptides
Procedure: Fourier Transform Infrared Spectroscopy—Infrared spectra were recorded using a Nicolet Nexus 470 FT-IR spectrometer with a DTGS detector. Samples of aged peptide solutions, taken from turbidity assay, were suspended on a CaF2 widows (Sigma)-plate and dried by vacuum. The peptide deposits were resuspended with […] and subsequently dried to form thin films. The resuspension procedure was repeated twice to ensure maximal hydrogen to deuterium exchange. The measurements were taken using a 4 cm^−1 resolution and 2000 scans averaging. The transmittance minima values were determined by the OMNIC analysis program (Nicolet).

[4] = Congo Red staining and birefringence (Example 9)
Procedure: Congo Red Staining and Birefringence—A 10 μL suspension of 8 mg/ml peptide solution in 10 mM Tris buffer, pH 7.2 aged for at least one day was allowed to dry overnight on a glass microscope slide. Staining was performed by the addition of a 10 μL suspension of saturated Congo Red (CR) and NaCl in 80% ethanol (v/v) solution as previously described [Puchtler (1966) Supra]. The solution was filtered via 0.45 μm filter. The slide was then dried for few hours. Birefringence was determined with a SZX-12 Stereoscope (Olympus, Hamburg, Germany) equipped with cross polarizers.

[5] = Negative staining electron microscopy of fibril formation (Example 5); details: 2 mM peptide incubated overnight
Procedure: Method—Peptide solutions (2 mM peptide in 10 mM Tris buffer pH 7.2), were incubated overnight at room temperature. Fibrils formation was assessed using 10 μl sample placed on 200-mesh copper grids, covered with carbon-stabilized formvar film (SPI Supplies, West Chester Pa.). Following 20-30 seconds of incubation, excess fluid was removed and the grids were negatively stained with 2% uranyl acetate in water. Samples were viewed in a JEOL 1200EX electron microscope operating at 80 kV.

[6] = Kinetic aggregation assay (turbidity at 405 nm) of IAPP peptide fragment and alanine mutants; details: 2 mM peptide, 10 mM Tris pH 7.2, 2% DMSO, room temperature
Procedure: To study self-assembly of the IAPP peptide derived fragments, aggregation and insolubilization kinetics were monitored using turbidity measurements at 405 nm.
Kinetic aggregation assay—Fresh peptide stock solutions were prepared by dissolving lyophilized form of the peptides in DMSO, a disaggregating solvent, at a concentration of 100 mM. To avoid any pre-aggregation, fresh stock solutions were prepared prior to each and every experiment. Peptide stock solutions were diluted into assay buffer and plated in 96-well plates as follows: 2 μl of peptides stock solutions were added to 98 μl of 10 mM Tris pH 7.2, resulting in a 2 mM final concentration of the peptide in the presence of 2% DMSO. Turbidity data was measured at 405 nm. A buffer solution including 2% DMSO was used as a blank. Turbidity was measured at room temperature over several time points.

[7] = Congo red binding assay with polarization microscopy (Example 4)
Procedure: Congo red (CR) staining combined with polarization microscopy was utilized to test amyloidogenicity of the peptides of the present invention. […] Invest. 31:232-8; Lansbury (1992) Biochemistry 31:6865-70]. […] Staining was effected by the addition of 1 mM CR in 10 mM Tris buffer pH 7.2 followed by a 1 minute incubation. To remove excess CR, slides were rinsed with double-distilled water and dried. Saturated CR solutions solubilized in 80% ethanol (v/v) were used for poorly aggregating peptides. In such cases, staining was effected without rinsing. Birefringence was determined using a WILD Makroskop m420 (×70) equipped with a polarizing stage.

[8] = Aggregate mean particle size by dynamic light scattering; details: 100 μM peptide, 1% DMSO, 10 mM Tris pH 7.2
Procedure: Therefore, the average size of the aggregates, formed by the various peptides, was determined using dynamic light scattering (DLS) experiments.
Method—Freshly prepared peptide stock solutions at a concentration of 10 mM were diluted in 10 mM Tris buffer pH 7.2 and further filtrated through a 0.2 μm filter to a final concentration of 100 μM peptide and 1% DMSO. Particle size measurement was conducted with a laser-powered ALV-NIBS/HPPS non-invasive backscattering instrument. Autocorrelation data was fitted using the ALV-NIBS/HPPS software to derive average apparent hydrodynamic diameters.

[9] = hIAPP peptide fragments, 8 mg/ml, 8% DMSO, monitored two hours
[10] = hIAPP peptide fragments, 8 mg/ml aged at least one day
[11] = peptide solutions incubated for four days
[12] = Medin-derived peptides, aged 4 days
[13] = Calcitonin-derived peptides, 0.02M NaCl, 0.01M Tris pH 7.2, aged 2 days

Substance: ERGFF
fibrilar supramolecular ultrastructures by electron microscopy [1]: filamentous structures were observed

Substance: FENKF
fibrilar supramolecular ultrastructures by electron microscopy [1]: filamentous structures were observed

Substance: FLVH
turbidity at 405 nm [2, 9]: almost no turbidity at all
secondary structure by FT-IR [3]: typical to random coil structure
structures by electron microscopy [1, 10]: amorphous aggregates
amyloid fibril formation (EM, CR staining, FT-IR) ([1]; incubated for two months): no evidence for amyloid fibril formation was detected
Congo Red birefringence [4, 10]: no birefringence

Substance: FLVHS
turbidity at 405 nm [2, 9]: high turbidity
structures by electron microscopy [1, 10]: large broad ribbon-like fibrils
Congo Red birefringence [4, 10]: typical birefringence

Substance: FLVHSS
turbidity at 405 nm [2, 9]: high turbidity
secondary structure by FT-IR [3]: major minimum at 1626
structures by electron microscopy [1, 10]: large broad ribbon-like fibrils
Congo Red birefringence [4, 10]: typical birefringence

Substance: G3A: alanine-scan mutant of the hIAPP peptide fragment, SEQ ID NO: 4 (NFAAILSS)
fibril structures by electron microscopy [5]: tangled net-like structures
kinetics of aggregation (turbidity at 405 nm) [6]: essentially the same profile as that of wild type peptide
Congo red binding and birefringence [7, 11]: bound CR and exhibited the characteristic green/gold birefringence
apparent hydrodynamic diameter of the structures formed [8]: very similar hydrodynamic diameters

Substance: GLVFVS
fibrilar supramolecular ultrastructures by electron microscopy [1]: filamentous structures were observed

Substance: GTFQIN
fibrilar supramolecular ultrastructures by electron microscopy [1]: filamentous structures were observed

turbidity at 405 nm ([2]; Medin-derived peptides): significantly lower turbidity
Substance: H-NAGSVQ-OH
structures by electron microscopy [1, 12]: no clear fibrillar structures could be detected
Congo Red birefringence ([4]; Medin-derived peptides): some degree of birefringence could still be detected

Substance: LFNQTG
fibrilar supramolecular ultrastructures by electron microscopy [1]: filamentous structures were observed

Substance: LQNFTL
fibrilar supramolecular ultrastructures by electron microscopy [1]: filamentous structures were observed

Substance: NFGAILSS
turbidity at 405 nm ([2]; hIAPP 22-29 and hydrophobic analogues, up to 24 hours): significant increase in turbidity
structures by electron microscopy ([1]; hIAPP 22-29 and analogues, five days of incubation): well-ordered fibrils

Substance: NFGSVQFV [published amyloidogenic octapeptide of Medin, reference compound]
turbidity at 405 nm ([2]; Medin-derived peptides): too fast to be measured
structures by electron microscopy [1, 12]: Fibrillar structures were clearly seen
Congo Red birefringence ([4]; Medin-derived peptides): significant birefringence

Substance: NFLVH
turbidity at 405 nm [2, 9]: almost no turbidity at all
secondary structure by FT-IR [3]: indicative of β-sheet
structures by electron microscopy [1, 10]: thin and short
Congo Red birefringence [4, 10]: powerful smear of birefringence at the edges of the sample

Substance: NFLVHSS
turbidity at 405 nm [2, 9]: high turbidity
secondary structure by FT-IR [3]: classical for an anti-parallel β-sheet structure
structures by electron microscopy [1, 10]: large broad ribbon-like fibrils
Congo Red birefringence [4, 10]: typical birefringence

Substance: NFLVHSSNN
turbidity at 405 nm [2, 9]: very low turbidity
secondary structure by FT-IR [3]: large β-sheet content
structures by electron microscopy [1, 10]: long thin coiling filaments
Congo Red birefringence [4, 10]: weaker characteristic birefringence

Substance: NH2- FNKF-COOH (H-FNKF-OH)
secondary structure by FT-IR (amide I) [3]: typical of a non-ordered structure
structures by electron microscopy [1, 13]: only amorphous aggregates could be found
Congo Red birefringence ([4]; Calcitonin-derived peptides): lower but significant

Substance: NH2-DFN -COOH (H-Asp-Phe-Asn-OH)
secondary structure by FT-IR (amide I) [3]: consistent with a mixture of β-sheet and random structures
structures by electron microscopy [1, 13]: more ordered structures
Congo Red birefringence ([4]; Calcitonin-derived peptides): lower but significant

Substance: NH2-DFNK -COOH (H-DFNK-OH)
secondary structure by FT-IR (amide I) [3]: less typical of a β-sheet structure
structures by electron microscopy [1, 13]: also formed fibrillar structures
Congo Red birefringence ([4]; Calcitonin-derived peptides): lower level of birefringence

Substance: NH2-DFNKF-COOH (H-DFNKF-OH)
secondary structure by FT-IR (amide I) [3]: consistent with anti-parallel β-sheet structure
structures by electron microscopy [1, 13]: clearly seen with high frequency
Congo Red birefringence ([4]; Calcitonin-derived peptides): clear and strong

Substance: NH2-FGSV -COOH (H-FGSV-OH)
turbidity at 405 nm ([2]; Medin-derived peptides): gradual increase in turbidity
structures by electron microscopy [1, 12]: no fibrillar structures could be found
Congo Red birefringence ([4]; Medin-derived peptides): no birefringence

Substance: NH2-FGSVQ -COOH (H-FGSVQ-OH)
turbidity at 405 nm ([2]; Medin-derived peptides): gradual increase in turbidity
structures by electron microscopy [1, 12]: somewhat fibrillar and ordered structure could be seen
Congo Red birefringence ([4]; Medin-derived peptides): no birefringence

Substance: NH2-GSVQ -COOH (H-GSVQ-OH)
structures by electron microscopy [1, 12]: no fibrillar structures could be found
Congo Red birefringence ([4]; Medin-derived peptides): unexpected high level of birefringence

Substance: NH2-NFGSV -COOH (H-NFGSV-OH)
turbidity at 405 nm ([2]; Medin-derived peptides): highest degree of aggregation within minutes of incubation
structures by electron microscopy [1, 12]: network of fibrous structures
Congo Red birefringence ([4]; Medin-derived peptides): very low degree of birefringence

Substance: NH2-NFGSVQ -COOH (H-NFGSVQ-OH)
turbidity at 405 nm ([2]; Medin-derived peptides): gradual increase in turbidity
structures by electron microscopy [1, 12]: Fibrillar structures were clearly seen
Congo Red birefringence ([4]; Medin-derived peptides): characteristic bright and strong green-gold birefringence

Substance: RALDFA
fibrilar supramolecular ultrastructures by electron microscopy [1]: filamentous structures were observed

Substance: RDFLDR
fibrilar supramolecular ultrastructures by electron microscopy [1]: filamentous structures were observed

Substance: SFFSFL (also: EG modification)
fibrilar supramolecular ultrastructures by electron microscopy [1]: filamentous structures were observed

Substance: SFNNG (also: EG modification)
fibrilar supramolecular ultrastructures by electron microscopy [1]: filamentous structures were observed

Substance: SGIFTN (also: EG modification)
fibrilar supramolecular ultrastructures by electron microscopy [1]: filamentous structures were observed

Substance: SNFLN (also: EG modification)
fibrilar supramolecular ultrastructures by electron microscopy [1]: filamentous structures were observed

Substance: TLIFGG (also: EG modification)
fibrilar supramolecular ultrastructures by electron microscopy [1]: filamentous structures were observed

Substance: wild type peptide: wild-type eight amino-acid hIAPP peptide fragment, NFGAIL motif followed by two serines, SEQ ID NO: 1 (NFGAILSS)
fibril structures by electron microscopy [5]: tangled net-like structures
Congo red binding and birefringence ([7]; peptide solution incubated for 14 days): significant CR birefringence
Congo red binding and birefringence [7, 11]: bound CR and exhibited the characteristic green/gold birefringence
apparent hydrodynamic diameter of the structures formed [8]: very similar hydrodynamic diameters
